We go through 1 molecule from paper PMC3967914.

In this data set the target is MHF1 (CENP-S);MHF2 (CENP-X) (Homo sapiens;Homo sapiens, UniProt Q8N2Z9;A8MT69 1-138;1-81, |). Briefly: X-ray crystallography.
Chain of MHF1 (CENP-S);MHF2 (CENP-X) (Q8N2Z9 whole entry, chain 1 of 2): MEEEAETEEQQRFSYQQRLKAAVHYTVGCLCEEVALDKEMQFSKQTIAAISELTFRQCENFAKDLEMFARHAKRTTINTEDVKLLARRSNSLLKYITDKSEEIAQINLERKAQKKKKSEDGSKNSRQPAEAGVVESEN
Chain of MHF1 (CENP-S);MHF2 (CENP-X) (A8MT69 whole entry, chain 2 of 2): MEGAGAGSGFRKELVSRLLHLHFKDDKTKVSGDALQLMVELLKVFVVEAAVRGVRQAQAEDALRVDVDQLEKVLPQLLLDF

B1: 26 bp dsDNA (crystal) (dsDNA)
DNA 1: ATCAATATCCACCGGTGGATATTGAT
DNA 2: ATCAATATCCACCGGTGGATATTGAT
Consider B1, for which the binding result is listed as “binds”.
